Here are results for one molecule from US20240409629A1.

In the assay the target is human CLDN18.1 (human) (UniProt P56856). Put plainly: FACS, U2OS-CLDN18.1 cells, antibody at 200 nM.

B1: IgG1 isotype control antibody (antibody, V domains shown)
VH: EVQLEQSGAELMKPGASVKISCKATGYTFTTYWIEWIKQRPGHSLEWIGEILPGSDSTYYNEKVKGKVTFTADASSNTAYMQLSSLTSEDSAVYYCARGDGFYVYWGQGTTLTVSS
VL: DIELTQSPATLSVTPGDSVSLSCRASQSISNNLHWYQQKSHESPRLLIKYTSQSMSGIPSRFSGSGSGTDFTLSINSVETEDFGVYFCQQSGSWPRTFGGGTKLDIKR
With B1, the MFI was found to be 6040.
